Test results taken from paper PMC5577056 (Scientific Reports, 2017).

What was measured:
Conditions in all cases: both partners purified
lysozyme [1] = target: T1, lysozyme (Gallus gallus (hen egg white), by PDB …, UniProt P00698); assay: ITC; antibody (about 30 uM) titrated into lysozyme (about 2 uM), 25 injections of 10 ul; PBS (20 mM, pH 7.4), 143 mM NaCl; 293 K (20 °C)
T1 construct: lysozyme, the antigen of the anti-lysozyme antibody HyHEL-10; also called antigen

lysozyme [2] = target: T1, lysozyme; assay: ITC; antibody (about 30 uM) titrated into lysozyme (about 2 uM), 25 injections of 10 ul; PBS (20 mM, pH 7.4), 143 mM NaCl; 303 K (30 °C)
lysozyme [3] = target: T1, lysozyme; assay: ITC; antibody (about 30 uM) titrated into lysozyme (about 2 uM), 25 injections of 10 ul; PBS (20 mM, pH 7.4), 143 mM NaCl; 298 K (25 °C)
lysozyme [4] = target: T1, lysozyme; assay: ITC; antibody (about 30 uM) titrated into lysozyme (about 2 uM), 25 injections of 10 ul; PBS (20 mM, pH 7.4), 143 mM NaCl; 293 K (20 °C); remark: listed apart in the source

T1 sequence (P00698 19-147): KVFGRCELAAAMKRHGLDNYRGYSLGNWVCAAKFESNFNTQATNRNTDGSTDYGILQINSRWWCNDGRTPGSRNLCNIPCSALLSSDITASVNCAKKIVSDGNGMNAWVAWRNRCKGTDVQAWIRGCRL

Row | Binder | dH (lysozyme [1]) [kcal/mol] | dH (lysozyme [2]) [kcal/mol] | dH (lysozyme [3]) [kcal/mol] | dH (lysozyme [4]) [kcal/mol]
1 | HyHEL-10 Fv fragment, H:R71A mutant (antibody, V domains shown, as the VH of m1, with R71A; as the VL of m1; Fv fragment; the text throughout has H:R71A) VH: DVQLQESGPSLVKPSQTLSLTCSVTGDSITSDYWSWIRKFPGNRLEYMGYVSYSGSTYYNPSLKSRISITADTSKNQYYLDLNSVTTEDTATYYCANWDGDYWGQGTLVTVSA VL: DIVLTQSPATLSVTPGNSVSLSCRASQSIGNNLHWYQQKSHESPRLLIKYASQSISGIPSRFSGSGSGTDFTLSINSVETEDFGMYFCQQSNSWPYTFGGGTKLEIK | -23.78 ± 0.0598 | -31.1 ± 0.347 | -27.1 ± 0.086 | –
2 | HyHEL-10 Fv fragment, L:R45A mutant (antibody, V domains shown, as the VH of m1; as the VL of m1, with R45A; Fv fragment; the text throughout has L:R45A) VH: DVQLQESGPSLVKPSQTLSLTCSVTGDSITSDYWSWIRKFPGNRLEYMGYVSYSGSTYYNPSLKSRISITRDTSKNQYYLDLNSVTTEDTATYYCANWDGDYWGQGTLVTVSA VL: DIVLTQSPATLSVTPGNSVSLSCRASQSIGNNLHWYQQKSHESPALLIKYASQSISGIPSRFSGSGSGTDFTLSINSVETEDFGMYFCQQSNSWPYTFGGGTKLEIK | – | -18.97 ± 0.055 | -17.57 ± 0.0359 | -16.46 ± 0.0502
